Reference: US20230151434A1, “REAWAKENING OF DORMANT TUMOR CELLS BY MODIFIED LIPIDS DERIVED FROM STRESS ACTIVATED NEUTROPHILS” (The Wistar Institute of Anatomy and Biology, priority 2020, published 2023)

Experiments:
PMN = PMN viability (proportion of live PMN); assay type: cell-based, mouse
Experimental: FIG. 2A-FIG. 2K show neutrophil-mediated reactivation of dormant cells is regulated by stress-induced S100A8/A9. (FIG. 2A) Fold increase in the number of KPr^p53A cells cultured in the presence of PMN and S100A8/A9 or indicated cytokines relative to KPr^p53A cells cultured with PMN. Three independent experiments with 16 replicates were performed. Mean±SEM of one experiment is shown. (FIG. 2B) Fold increase in the number of KPr^p53A cells cultured in the presence of PMN and LPS relative to KPr^p53A cells cultured with PMN or alone. Means±SEM of three independent experiments with 16 replicates each are shown. (FIG. 2C) Fold increase in the number of KPr^p53A cells cultured in the presence of S100A8/A9 alone, PMN and S100A8/A9, or PMN-MDSC relative to KPr^p53A cultured alone. Means±SEM of 10 independent experiments with 16 replicates each are shown. (FIG. 2D) S100A8/A9 protein produced by PMN after treatment with indicated hormones or LPS was measured by ELISA. PMN-MDSC were isolated from spleens of Lewis lung carcinoma tumor-bearing mice. Means±SEM and results of each independent experiment with three replicates are shown. (FIG. 2E) S100A8/A9 protein secreted in vitro from PMN and PMN treated with NE with or without ICI-118; […] as measured by ELISA. Means±SEM and results of independent experiment with three replicates are shown. (FIG. 2F) Flow cytometry staining of ADRB2 receptor (dark gray) on PMN isolated from mouse spleen. Isotype control, light gray. Representative histogram of three experiments is shown. (FIG. 2G) Fold increase in the number of KPr^p53A cells cultured with PMN alone, NE alone, PMN and NE together, and PMN and NE plus ICI-118; 553 relative to KPr^p53A cells cultured alone (Ctrl). Ten independent experiments with 16 replicates for each experiment were performed. Means±SEM in a representative experiment are shown. (FIG. 2H) Number of KPr^p53A cells cultured in the presence of PMN from S100a9KO mice alone or together with NE relative to KPr^p53A cells cultured alone (ctrl). Means±SEM are reported for 16 replicates. (FIG. 2I) Percentage of live PMN after overnight incubation with NE, S100A8/A9, or LPS. Each dot represents the average of three experimental replicates of one single experiment. Means±SEM are shown for each group. (FIG. 2J) Fold increase in number of LL2^CisA cells cultured with PMN alone or together with S100A8/A9 or NE relative to LL2^CisA cultured alone (Ctrl). Means±SEM of three independent experiments with 16 replicates each are shown. […] In all panels, P values were calculated using ANOVA test with correction for multiple comparisons.
FIG. 11A-FIG. 11G show the mechanism of dormant tumor cell reactivation. […] P values were calculated by ANOVA test with correction for multiple comparisons. […]

[1] = tested on: LL2^cisA and AT-3^DoxA cells; experiment: In vitro co-culture of chemotherapy-arrested mouse tumor cells with PMN; assay type: cell-based
Experimental: (§1) The KPr cell line (16) was maintained in RPMI 1640 medium (Corning) and 10% FBS (Gibco). Treatment of KPr cells with 250 nM 4-hydroxytamoxifen (4-OHT, Sigma-Aldrich) induced p53 expression. p53-induced cells (KPr^p53) were stained with CellTrace dye for 20 min at 37° C. according to the manufacturer's instructions (Life Technologies) and seeded at 8500 cells/cm^2 in culture in a T175 tissue culture-treated flask (Gibco). After 7 days, cells were detached and sorted based on the CellTrace dye intensity as proliferating (KPr^p53P, with lower CellTrace) and arrested cells (KPr^p53A, with higher-intensity CellTrace; see FIG. 1A for representative image). LL2 cells were seeded at 1000 cells/cm2 and treated for 3 days with 2.5 μM cisplatin (Selleckchem). After that, cells were stained with CellTrace and sorted as described above. OVCAR3 cell senescence was induced by treating 5×10^4 cells/cm2 with 0.5 μM cisplatin for 72 hours. After that time, cells were stained with CellTrace and sorted. A549 senescence was induced by 72-hour treatment with 4 μM cisplatin and cells were sorted after staining with CellTrace. Time points for sorting were chosen as the best to observe separation between arrested and proliferating cells. Cells were sorted on Astrios (Beckman Coulter) or Melody (Becton Dickinson) fluorescence-activated cell sorters.
(§2) Arrested tumor cells were plated at 100 cells/cm^2 in a 48-well tissue culture-treated plate (Costar) for coculture experiments. After 24 hours, PMN-MDSC or PMN were added at indicated ratios. Cocultures were maintained for 48 hours in RPMI 1640+10% FBS in the presence of mouse recombinant GM-CSF (10 ng/ml; Rocky Hill) to ensure neutrophil viability. All control conditions were in the presence of media with GM-CSF. All indicated supplements (NE, S100A8/A9, BGJ398, ICI 118-551, IL-2, MPO inhibitor, LPS, lipids, PMA, and thapsigargin 1 μM) were added to culture at the same time as PMN and maintained for 48 hours. After that, media were removed and replaced by fresh media without GM-CSF. After 1 week, GFP^+ cells in wells were counted via an inverted microscope. When lipid extracts were used, lipids were added to dormant cells in culture at 1 to 0.05 or 0.01 nmol as indicated in each experiment.

KPr^p53A cells = experiment: In vitro co-culture of dormant tumor cells with PMN (count of GFP+ cells); assay type: cell-based, mouse
Experimental: as §1, §2

Q: With `Cc1ccc(OCC(O)C(C)NC(C)C)c2c1CCC2` (centres unmarked) [ICI-118,551] as the molecule, how does the “cytotoxic effect on PMN” value (PMN; proportion of live PMN after exposure) read?
A: no cytotoxic effect on PMN

Q: What about the “NE- and PMN-induced reactivation of dormant mouse tumor cells, effect of β-blocker” value ([1]; PMN and NE plus ICI-118,551) of the same molecule?
A: this effect was abrogated

Q: What about the “proliferation of KPr^p53A cells induced by PMN and NE, effect of β-blocker” value (KPr^p53A cells; PMN and NE plus ICI-118,551) of the same molecule?
A: this effect was abrogated

B1: S100A8/A9: recombinant S100A8/A9, heterocomplex of two S100 calcium binding proteins (calprotectin) (protein, UniProt P27005 2-89; P31725 2-113, looked up)
Protein S100-A8: PSELEKALSNLIDVYHNYSNIQGNHHALYKNDFKKMVTTECPQFVQNINIENLFRELDINSDNAINFEEFLAMVIKVGVASHKDSHKE
Protein S100-A9: ANKAPSQMERSITTIIDTFHQYSRKEGHPDTLSKKEFRQMVEAQLATFMKKEKRNEALINDIMEDLDTNQDNQLSFEECMMLMAKLIFACHEKLHENNPRGHGHSHGKGCGK
Q: How did the PMN viability (PMN) turn out when B1 was run?
A: did not affect PMN viability

Q: What about the “proliferation of arrested mouse tumor cells cultured with mouse PMN plus supplement” value ([1]; LL2^cisA, AT-3^DoxA) of the same molecule?
A: activated proliferation

Q: What about the “reactivation/proliferation of KPr^p53A cells, supplement alone” value (KPr^p53A cells; absence of PMN) of the same molecule?
A: no effect

Q: And the “reactivation of KPr^p53A cells cultured with MON plus supplement” value (KPr^p53A cells; monocytes instead of PMN)?
A: failed to reactivate KPr^p53A cells

Q: What about the “reactivation/proliferation of KPr^p53A cells cultured with PMN plus supplement” value (KPr^p53A cells; supplement added with PMN, LPS 0.5 to 2 μg/ml) of the same molecule?
A: enabled PMN to induce proliferation of KPr^p53A cells
